# Data published in patent US20200216495A1 (ADRX, published 2020).
# Where “and” joins values, the source holds several entries; their conditions need not be identical. Identical values can stand only once. Square brackets hold non-standard residues; d marks the D form. Ends that are not written are not given here.
# B1: ekirihy (peptide)
# peptide: [dE][dK][dI][dR][dI][dH][dY]
# B2: yririnhl (peptide)
# peptide: [dY][dR][dI][dR][dI][dN][dH][dL]
# B3: ihyhrikl (peptide)
# peptide: [dI][dH][dY][dH][dR][dI][dK][dL]
# B4: lkirih (peptide)
# peptide: [dL][dK][dI][dR][dI][dH]
# B5: fhieirhf (peptide)
# peptide: [dF][dH][dI][dE][dI][dR][dH][dF]
# B6: felrikhy (peptide)
# peptide: [dF][dE][dL][dR][dI][dK][dH][dY]
# B7: frlriwwf (peptide)
# peptide: [dF][dR][dL][dR][dI][dW][dW][dF]
# B8: fhleirhw (peptide)
# peptide: [dF][dH][dL][dE][dI][dR][dH][dW]
# B9: frvkiehw (peptide)
# peptide: [dF][dR][dV][dK][dI][dE][dH][dW]
# B10: leikirhw (peptide)
# peptide: [dL][dE][dI][dK][dI][dR][dH][dW]
# B11: wrlkvew (peptide)
# peptide: [dW][dR][dL][dK][dV][dE][dW]
# B12: lkiriehy (peptide)
# peptide: [dL][dK][dI][dR][dI][dE][dH][dY]
# B13: wnlkvnw (peptide)
# peptide: [dW][dN][dL][dK][dV][dN][dW]
# B14: fwlrihwf (peptide)
# peptide: [dF][dW][dL][dR][dI][dH][dW][dF]
# B15: yhvkfrhw (peptide)
# peptide: [dY][dH][dV][dK][dF][dR][dH][dW]
# B16: whvrirhv (peptide)
# peptide: [dW][dH][dV][dR][dI][dR][dH][dV]
# B17: lkvrww (peptide)
# peptide: [dL][dK][dV][dR][dW][dW]
# B18: rirlhw (peptide)
# peptide: [dR][dI][dR][dL][dH][dW]
# B19: wlkvrw (peptide)
# peptide: [dW][dL][dK][dV][dR][dW]
# B20: feirlhhw (peptide)
# peptide: [dF][dE][dI][dR][dL][dH][dH][dW]
# B21: klklrw (peptide)
# peptide: [dK][dL][dK][dL][dR][dW]
# B22: wklklrww (peptide)
# peptide: [dW][dK][dL][dK][dL][dR][dW][dW]
# B23: rlrihw (peptide)
# peptide: [dR][dL][dR][dI][dH][dW]
# B24: wrlrvw (peptide)
# peptide: [dW][dR][dL][dR][dV][dW]
# B25: kirihyh (peptide)
# peptide: [dK][dI][dR][dI][dH][dY][dH]
# B26: wrvhfehw (peptide)
# peptide: [dW][dR][dV][dH][dF][dE][dH][dW]
# B27: fklwlrwf (peptide)
# peptide: [dF][dK][dL][dW][dL][dR][dW][dF]
# B28: whvrlnhl (peptide)
# peptide: [dW][dH][dV][dR][dL][dN][dH][dL]
# B29: kirihyhl (peptide)
# peptide: [dK][dI][dR][dI][dH][dY][dH][dL]
# B30: wrfhihfy (peptide)
# peptide: [dW][dR][dF][dH][dI][dH][dF][dY]
# B31: rlkwrw (peptide)
# peptide: [dR][dL][dK][dW][dR][dW]
# B32: yrirlehv (peptide)
# peptide: [dY][dR][dI][dR][dL][dE][dH][dV]
# B33: lhiklkhf (peptide)
# peptide: [dL][dH][dI][dK][dL][dK][dH][dF]
# B34: klkwlw (peptide)
# peptide: [dK][dL][dK][dW][dL][dW]
# B35: yrvriqhi (peptide)
# peptide: [dY][dR][dV][dR][dI][dQ][dH][dI]
# B36: leirihyh (peptide)
# peptide: [dL][dE][dI][dR][dI][dH][dY][dH]
# B37: felklrwh (peptide)
# peptide: [dF][dE][dL][dK][dL][dR][dW][dH]
# B38: fklhlkhy (peptide)
# peptide: [dF][dK][dL][dH][dL][dK][dH][dY]
# B39: wrllvrww (peptide)
# peptide: [dW][dR][dL][dL][dV][dR][dW][dW]
# B40: fklklwwf (peptide)
# peptide: [dF][dK][dL][dK][dL][dW][dW][dF]
# B41: wrlkhrw (peptide)
# peptide: [dW][dR][dL][dK][dH][dR][dW]
# B42: rlkvww (peptide)
# peptide: [dR][dL][dK][dV][dW][dW]
# B43: klkivw (peptide)
# peptide: [dK][dL][dK][dI][dV][dW]
# B44: frlwihwf (peptide)
# peptide: [dF][dR][dL][dW][dI][dH][dW][dF]
# B45: wqlqvrw (peptide)
# peptide: [dW][dQ][dL][dQ][dV][dR][dW]
# B46: lkifihyh (peptide)
# peptide: [dL][dK][dI][dF][dI][dH][dY][dH]
# B47: wrhkvrw (peptide)
# peptide: [dW][dR][dH][dK][dV][dR][dW]
# B48: rihyhlki (peptide)
# peptide: [dR][dI][dH][dY][dH][dL][dK][dI]
# B49: wrlwihww (peptide)
# peptide: [dW][dR][dL][dW][dI][dH][dW][dW]
# B50: lkirihah (peptide)
# peptide: [dL][dK][dI][dR][dI][dH][dA][dH]
# B51: wikivr (peptide)
# peptide: [dW][dI][dK][dI][dV][dR]
# B52: klkikw (peptide)
# peptide: [dK][dL][dK][dI][dK][dW]
# B53: yrlkvrw (peptide)
# peptide: [dY][dR][dL][dK][dV][dR][dW]
# B54: vkvwgrlw (peptide)
# peptide: [dV][dK][dV][dW]G[dR][dL][dW]
# modifications: not fully specified (residue 5); printed as vkvwgrlw
# B55: lrieiewh (peptide)
# peptide: [dL][dR][dI][dE][dI][dE][dW][dH]
# B56: wwlrihww (peptide)
# peptide: [dW][dW][dL][dR][dI][dH][dW][dW]
# Target: Tau40 P301L protein (human)
# Test: cell-based or functional assay
row,Binder,"IC50, Tau40 assay (ThT)"
1,B1,5.58 µM
2,B2,6.5 µM
3,B3,5.12 µM
4,B4,4.95 µM
5,B5,6.06 µM
6,B6,6.57 µM and 12 µM
7,B7,6.85 µM and 10.8 µM
8,B8,6.87 µM
9,B9,5.25 µM
10,B10,5.38 µM and 8.72 µM
11,B11,6.67 µM
12,B12,4.53 µM
13,B13,4.86 µM
14,B14,7.28 µM and 7.56 µM
15,B15,4.71 µM
16,B16,5.03 µM
17,B17,6.48 µM
18,B18,6.97 µM
19,B19,5.51 µM

row,Binder,"IC50, Tau40 assay (ThT)"
1,B20,4.2 µM
2,B21,5.92 µM and 5.99 µM
3,B22,4.13 µM
4,B23,6.87 µM
5,B24,5.48 µM and 5.5 µM
6,B25,4.92 µM
7,B26,6.86 µM
8,B27,4.19 µM and 7.03 µM
9,B28,6.39 µM
10,B29,4.59 µM
11,B30,6.53 µM and 7 µM
12,B31,5.62 µM
13,B32,6.3 µM
14,B33,4.44 µM and 4.64 µM
15,B34,4.41 µM
16,B35,5.13 µM
17,B36,4.07 µM
18,B37,4.94 µM and 5.3 µM
19,B38,7.19 µM and 7.53 µM

row,Binder,"IC50, Tau40 assay (ThT)"
1,B39,6.46 µM
2,B40,7.22 µM and 15 µM
3,B41,5.86 µM
4,B42,7.01 µM
5,B43,6.9 µM
6,B44,4.39 µM and 6.88 µM
7,B45,6.57 µM
8,B46,4.57 µM
9,B47,5.5 µM
10,B48,6.63 µM
11,B49,5.99 µM and 7.56 µM
12,B50,6.41 µM
13,B51,6.97 µM
14,B52,6.87 µM
15,B53,4.69 µM
16,B54,6.72 µM
17,B55,5.89 µM and 9.68 µM
18,B56,4.09 µM and 5.61 µM
